Measured values reported in paper doi:10.1101/2024.11.23.624964 (bioRxiv, 2024).

Target: the molecule itself
Test: thioflavin-T fluorescence

B1: TDP-43-low complexity domain (LCD) (aa: 274-414) (domain or fragment, UniProt Q13148 274-414, looked up)
chain: GRFGGNPGGFGNQGGFGNSRGGGAGLGNNQGSNMGGGMNFGAFSINPAMMAAAQAALQSSWGMMGMLASQQNQSGPSGNNQNQGNMQREPNQAFGSGNNSYSGSNSGAAIGWGSASNAGSGSGFNGGFGSSMDSKSSGWGM
B1: binds.
